For one series, the target named is E. coli MurD (Escherichia coli, UniProt P14900). The conditions noted are these: 350 μM UDP-N-acetyl-muramyl-L-alanine.
The next series relates to S. pyogenes MurD. Kind of series: ATP-dependent MurD activity, pyruvate kinase/lactate dehydrogenase coupled enzyme assay (ADP formation). The conditions noted are these: partially purified, UDP-N-acetylmuramyl-L-ala 350 μM, D-glutamate 1 mM, ATP 1 mM, 200 μl, 25° C. The class given is biochemical, Streptococcus pyogenes. How it is done:
The cell pellet from 100 ml of induced culture prepared as described above was resuspended in 10 ml BT buffer (50 mM bis-tris-propane, pH 8.0, containing 100 mM potassium chloride and 1% glycerol) at 4° C. Cells were lysed either by freeze-thaw or by French Press. After centrifugation, the supernatant was mixed with 15 ml of freshly prepared Talon resin and incubated for 30 min at room temp. The resin was washed twice by centrifugation with 25 ml of BT buffer at room temperature. Finally, the resin loaded into a column and washed with 20 ml of BT, pH 7.0, containing 5 mM imidazole. Protein was eluted with 20 ml of BT buffer pH 8.0, containing 100 mM imidazole. Fractions (0.5 ml) were collected and analyzed by SDS-Gel electrophoresis. Fractions containing MurD were pooled, cleaved with thrombin (20 units/mg of His-tagged MurD) to remove the histidine tag. Finally the MurD protein was purified on Superdex 75 size exclusion column and eluted in 10 mM tris, pH 7.4, 150 mM NaCl and dialyzed in 100 mM MOPS, pH 7.5, using a Slide-A-Lyzer (Pierce, Rockford, Ill.). […] The protein may be purified further, if desired, using methods known in the art.
The reaction was monitored spectrophotometrically.

E. coli MurD, sequence (P14900 whole entry): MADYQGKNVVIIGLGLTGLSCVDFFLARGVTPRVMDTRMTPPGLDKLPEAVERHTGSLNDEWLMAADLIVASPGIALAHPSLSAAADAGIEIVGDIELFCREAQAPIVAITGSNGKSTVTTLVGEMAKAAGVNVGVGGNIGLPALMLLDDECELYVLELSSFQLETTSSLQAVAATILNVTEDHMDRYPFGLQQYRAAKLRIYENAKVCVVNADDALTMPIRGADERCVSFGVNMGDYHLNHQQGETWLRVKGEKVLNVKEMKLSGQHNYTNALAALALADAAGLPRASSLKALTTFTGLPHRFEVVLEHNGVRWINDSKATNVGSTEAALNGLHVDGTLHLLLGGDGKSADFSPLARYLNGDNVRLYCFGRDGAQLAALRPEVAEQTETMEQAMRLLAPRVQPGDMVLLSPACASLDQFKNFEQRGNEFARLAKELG
Description for E. coli MurD: The ATP-dependent MurD activity was assayed by monitoring the formation of product ADP using the pyruvate kinase and lactate dehydrogenase coupled enzyme assay. The reaction was monitored spectrophotometrically.
Typically, the assay contained 100 mM BIS-TRIS-propane, pH 8.0, 200 μM NADH, 1 mM ATP, 20 mM PEP, 5 mM MgCl2, 1 mM DTT, 350 μM UDP-N-acetyl-muramyl-L-alanine, 1 mM D-glutamate, 33 units/ml of pyruvate kinase and 1660 units/ml of lactate dehydrogenase in a final volume of 200 or 400 μL. The mixture was incubated at 25° C. for 5 min and the reaction initiated by the addition of 1-10 μg of MurD. ADP formation was monitored by the decrease in absorbance at 340 nm as a function of time using a Molecular Devices SpectramaxPlus microtiterplate spectrophotomer (for 200 μl assays) or a Hewlett-Packard HP8452A spectrophotometer equipped with a circulating water bath (for 400 μl assays). Rates were calculated from the linear portions of the progress curves using the extinction coefficient for NADH, e=6220 cm^−1 M^−1. One unit of MurD activity is equal to 1 μmol of ADP formed per min at 25° C.
Assays have been conducted using 120 and 350 μM UDP-N-acetyl-muramyl-L-alanine.

For `CC(=O)N[C@H]1C(OP(=O)(O)OP(=O)(O)OC[C@H]2O[C@@H](n3ccc(=O)[nH]c3=O)[C@H](O)[C@@H]2O)O[C@H](CO)[C@@H](O)[C@@H]1O[C@H](C)C(=O)N[C@H](C)C(=O)O` (stereo partly drawn) [UDP-N-acetyl-muramyl-L-alanine], the “substrate inhibition of the E. coli MurD” value on E. coli MurD is given as “substrate inhibition”.

B1: S. pyogenes: recombinant Streptococcus pyogenes MurD protein (SEQ ID NO:2), His-tag removed, partially purified (protein)
chain: MKVISNFQNKKILILGLAKSGEAAAKLLTKLGALVTVNDSKPFDQNPAAQALLEEGIKVICGSHPVELLDEDFEYMVKNPGIPYDNPMVKRALAKEIPILTEVELAYFVSEAPIIGITGSNGKTTTTTMIADVLNAGGQSALLSGNIGYPASKVVQKAIAGDTLVMELSSFQLVGVNAFRPHIAVITNLMPTHLDYHGSFEDYVAAKWMIQAQMTESDYLILNANQEISATLAKTTQATVIPFSTQKVVDGAYLKDGILYFKEQAIIAATDLGVPGSHNIENALATIAVAKLSGIADDIIAQCLSHFGGVKHRLQRVGQIKDITFYNDSKSTNILATQKALSGFDNSRLILIAGGLDRGNEFDDLVPDLLGLKQMIILGESAERMKRAANKAEVSYLEARNVAEATELAFKLAQTGDTILLSPANASWDMYPNFEVRGDEFLATFDCLRGDA
modifications: His-tag removed; Streptococcus pyogenes MurD
The molecule B1 returned a units in the series with S. pyogenes MurD (0.00137 mg protein) of 0.00017 µmol/min. In addition, the Specific activity with S. pyogenes MurD was 0.13 µmol/min/mg.

Source of the values: US6746858B1, “Murd protein and gene of Streptococcus pyogenes” (Merck & Co. Inc., priority 1997, dated 2004).
